Here are results for four molecules from paper PMC5014727 (Structure (London, England : 1993), 2016).

The chains are these.
B1: chemically ligated sRAGE (extracellular soluble RAGE, VC1 ligated to C2) (domain or fragment, UniProt Q15109 23-342, looked up)
chain: AQNITARIGEPLVLKCKGAPKKPPQRLEWKLNTGRTEAWKVLSPQGGGPWDSVARVLPNGSLFLPAVGIQDEGIFRCQAMNRNGKETKSNYRVRVYQIPGKPEIVDSASELTAGVPNKVGTCVSEGSYPAGTLSWHLDGKPLVPNEKGVSVKEQTRRHPETGLFTLQSELMVTPARGGDPRPTFSCSFSPGLPRHRALRTAPIQPRVWEPGCSAEVQLVVEPEGGAVAPGGTVTLTCEVPAQPSPQIHWMKDGVPLPLPPSPVLILPEIGPQDQGTYSCVATHSSHGPQESRAVSISIIEPGEEGPTAGSVGGSGLGTLA
B2: Ca2+-S100B dimer (ligand)
chain: MSELEKAMVALIDVFHQYSGREGDKHKLKKSELKELINNELSHFLEEIKEQEVVDKVMETLDNDGDGECDFQEFMAFVAMVTTACHEFFEHE

One data set deals with sRAGE ECD (Homo sapiens) (UniProt Q15109). The conditions noted are these: cited from earlier work.
The target in data set [1] is full length RAGE fused with yellow fluorescence protein (human) (UniProt Q15109). The experiment in a line: FRET or BRET.
The data set “15N NMR relaxation” deals with the molecule itself. The experiment in a line: 15N NMR relaxation.
The data set “cross-linking” concerns the molecule itself. The experiment in a line: cross-linking.
Data set [2] has as its target B1. The experiment in a line: ELISA. A general note: An ELISA detects its analyte on a solid surface through an enzyme-linked reagent.

“And” between values parts separate entries of the source, which are not always exact repeats. Equal values may be shown once.

Broadly, the Kd is the free concentration of one partner at which half of the binding sites on the other are occupied at equilibrium, for simple one-to-one binding. Turning to sRAGE ECD (from UniProt Q15109), the Kd in the data set with sRAGE ECD (Homo sapiens) is 100 µM.

Consider “ΔDAD-DIAPH1 fused with cyan fluorescent protein (from UniProt O60610 1-1272) (natural protein)”, for which, in data set [1], the FRET efficiency (with Ca2+-S100B) is 10% and the FRET efficiency (without Ca2+-S100B) came to 8%.

A word on the stoichiometry N: it is the number of molecules, sites or subunits per partner or assembly. As for B1, binding in “15N NMR relaxation” was put at a Kd of 120 ± 12 µM. Besides, in “cross-linking”, the “stoichiometry N” value was 2 and 3 and 4.

B2 had a Kd in data set [2] of 0.49 ± 0.043 µM.
